One substance from paper PMC12326988, “Synthetic host defense peptide inhibits SARS-CoV-2 replication in vitro” (Antimicrobial Agents and Chemotherapy, 2025) can be followed below.

This experiment concerns the target binding between SARS-CoV-2 Wuhan RBD-Fc and hACE2-AP (UniProt P0DTC2+Q9BYF1). Set-up: species or system SARS-CoV-2; human.

Chain of binding between SARS-CoV-2 Wuhan RBD-Fc and hACE2-AP (Q9BYF1 18-740, one chain of several): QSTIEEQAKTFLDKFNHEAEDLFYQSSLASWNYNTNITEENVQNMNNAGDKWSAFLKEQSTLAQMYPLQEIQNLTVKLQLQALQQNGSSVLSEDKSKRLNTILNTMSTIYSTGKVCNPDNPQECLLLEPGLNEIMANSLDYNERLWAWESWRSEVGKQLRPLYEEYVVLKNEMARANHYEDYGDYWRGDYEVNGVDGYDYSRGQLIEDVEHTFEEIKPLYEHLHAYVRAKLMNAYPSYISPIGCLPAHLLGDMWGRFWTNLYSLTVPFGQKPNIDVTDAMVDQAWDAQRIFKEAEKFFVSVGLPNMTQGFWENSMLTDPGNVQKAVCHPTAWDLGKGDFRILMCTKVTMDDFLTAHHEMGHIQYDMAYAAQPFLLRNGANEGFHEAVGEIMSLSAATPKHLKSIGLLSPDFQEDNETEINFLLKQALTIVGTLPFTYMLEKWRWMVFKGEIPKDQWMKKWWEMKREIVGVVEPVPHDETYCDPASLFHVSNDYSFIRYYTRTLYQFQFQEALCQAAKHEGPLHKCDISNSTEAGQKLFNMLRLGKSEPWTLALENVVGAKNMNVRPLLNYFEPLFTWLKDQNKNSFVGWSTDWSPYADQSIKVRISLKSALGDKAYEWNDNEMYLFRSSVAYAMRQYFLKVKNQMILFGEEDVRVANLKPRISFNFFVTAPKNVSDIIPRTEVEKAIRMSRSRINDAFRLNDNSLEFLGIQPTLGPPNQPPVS

As to shACE2, the “IC50, inhibition of hACE2-AP to RBD-Fc interaction” value amounted to 1.42 µg/mL.
